What was measured:
[1] = molecular target: T1, KDR (VEGFR-2) (Homo sapiens, UniProt P35968); assay: Direct binding assay of Fab to KDR; parameters: the cDNA for KDR (VEGFR-2) extracellular domain is fused in-frame with the cDNA for human placental AP; made in house; host or cells: stably transfected NIH 3T3 cells, purified from supernatant on anti-AP antibody
Procedure: In a direct binding assay, various amounts of soluble Fab proteins were added to KDR (VEGFR-2)-coated 96-well Maxi-sorp microtiter plates and incubated at RT for 1 h, after which the plates were washed 3 times with PBST. The plates were then incubated at RT for 1 h with 100 Φl of a rabbit anti-human Fab antibody-HRP conjugate (Jackson ImmunoResearch Laboratory Inc., West Grove, Pa.). The plates were washed and developed following the procedure described above for the phage ELISA. […] Absorbance at 405 nm was measured to quantify the bound KDR (VEGFR-2)-AP molecules (8).
Target sequence in this assay (P35968 20-764 limits assumed): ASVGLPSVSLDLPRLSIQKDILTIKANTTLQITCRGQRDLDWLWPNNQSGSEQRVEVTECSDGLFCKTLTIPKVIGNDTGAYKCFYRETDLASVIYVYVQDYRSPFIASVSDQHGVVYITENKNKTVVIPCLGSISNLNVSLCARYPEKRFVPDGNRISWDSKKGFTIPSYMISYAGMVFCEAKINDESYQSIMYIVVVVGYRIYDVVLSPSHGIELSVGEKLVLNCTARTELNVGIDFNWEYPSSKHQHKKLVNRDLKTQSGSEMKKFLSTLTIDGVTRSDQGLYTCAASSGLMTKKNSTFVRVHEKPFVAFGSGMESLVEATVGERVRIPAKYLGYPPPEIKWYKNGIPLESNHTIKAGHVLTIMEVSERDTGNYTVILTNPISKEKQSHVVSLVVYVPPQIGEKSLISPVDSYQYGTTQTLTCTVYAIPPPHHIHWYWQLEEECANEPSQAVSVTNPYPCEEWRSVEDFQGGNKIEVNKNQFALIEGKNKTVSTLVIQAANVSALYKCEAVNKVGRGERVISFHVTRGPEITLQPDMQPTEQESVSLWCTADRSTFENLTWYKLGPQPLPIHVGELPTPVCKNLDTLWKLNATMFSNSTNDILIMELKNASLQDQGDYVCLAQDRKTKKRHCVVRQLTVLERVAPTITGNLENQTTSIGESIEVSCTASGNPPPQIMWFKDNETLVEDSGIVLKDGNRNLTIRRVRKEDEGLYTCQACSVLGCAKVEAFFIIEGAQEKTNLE

[2] = molecular target: T1, KDR (VEGFR-2); assay: BIAcore analysis of soluble Fab; format: binding; parameters: the cDNA for KDR (VEGFR-2) extracellular domain is fused in-frame with the cDNA for human placental AP; made in house; host or cells: stably transfected NIH 3T3 cells, purified from supernatant on anti-AP antibody; conditions: mean±SE
Procedure: The binding kinetics of soluble Fab proteins to KDR (VEGFR-2) were measured by surface plasmon resonance using a BIAcore biosensor (Pharmacia Biosensor). KDR (VEGFR-2)-AP fusion protein was immobilized onto a sensor chip and soluble Fab proteins were injected at concentrations ranging from 1.5 nM to 100 nM. Sensorgrams were obtained at each concentration and were evaluated using a program, BIA Evaluation 2.0, to determine the rate constants kon and koff Kd was calculated from the ratio of rate constants koff/kon.
Target sequence in this assay (P35968 20-764 limits assumed): as above

[3] = tested on: KDR (VEGFR-2), KDR (VEGFR-2)(1-3), KDR (VEGFR-2)(3); assay: Binding epitope mapping with KDR Ig-domain deletion variants; parameters: species or system human
Procedure: The production of KDR (VEGFR-2) extracellular Ig-like domain deletion variants has been previously described (Lu et al. (2000)). In an epitope-mapping assay, full length KDR (VEGFR-2)-AP, Ap fusions of two KDR (VEGFR-2) Ig-domain deletion variants, and Flk-1-AP were first immobilized onto a 96-well plate (Nunc) using a rabbit anti-AP antibody (DAKO-immunoglobulins, Glostrup, Denmark) as the capture reagent. The plate was then incubated with various anti-KDR (VEGFR-2) Fab proteins at RT for 1 h, followed by incubation with a rabbit anti-human Fab antibody-HRP conjugate. The plate was washed and developed as described above.

[4] = molecular target: T2, KDR (VEGFR-2) binding to VEGF (Homo sapiens, UniProt P35968); assay: Competitive VEGF binding assay, first assay (KDR-AP to immobilized VEGF165); conditions: FIG. 22
T2 construct: the cDNA for KDR (VEGFR-2) extracellular domain is fused in-frame with the cDNA for human placental AP; made in house; host or cells: stably transfected NIH 3T3 cells, purified from supernatant on anti-AP antibody
Procedure: In the first assay, various amounts of antibodies were mixed with a fixed amount of KDR (VEGFR-2)-AP (50 ng) and incubated at room temperature for 1 h.

[5] = molecular target: T1, KDR (VEGFR-2); assay: KDR phosphorylation assay in HUVEC (chimeric IgG); format: cell-based; parameters: endogenous in cells; host or cells: HUVEC, early passage
Procedure: (§1) Subconfluent HUVEC cells were grown in growth factor depleted EBM-2 medium for 24 to 48 h prior to experimentation. […] The cells were then lysed in lysis buffer ([…], 150 mM NaCl, 1% NP-40, 2 mM EDTA, 0.25% sodium deoxycholate, 1 mM PMSF, 1 μg/ml leupeptin, 1 μg/ml pepstatin, 10 μg/ml aprotinin, pH 7.5) and the cell lysate used for both the KDR (VEGFR-2) and MAP kinase phosphorylation assays. The KDR (VEGFR-2) receptor was immunoprecipitated from the cell lysates with Protein A Sepharose beads (Santa Cruz Biotechnology, Inc., CA) coupled to an anti-KDR (VEGFR-2) antibody, Mab 4.13 (ImClone Systems). Proteins were resolved with SDS-PAGE and subjected to Western blot analysis. To detect KDR (VEGFR-2) phosphorylation, blots were probed with an antiphosphotyrosine Mab, PY20 (ICN Biomedicals, Inc. Aurora, Ohio). For the MAP kinase activity assay, cell lysates were resolved with SDS-PAGE followed by Western blot analysis using a phospho-specific MAP kinase antibody (New England BioLabs, Beverly, Mass.). All signals were detected using ECL (Amersham, Arlington Heights, Ill.). In both assays, the blots were reprobed with a polyclonal anti-KDR (VEGFR-2) antibody (ImClone Systems) to assure that equal amount of protein was loaded in each lane of SDS-PAGE gels.
Target sequence in this assay (P35968 20-1356): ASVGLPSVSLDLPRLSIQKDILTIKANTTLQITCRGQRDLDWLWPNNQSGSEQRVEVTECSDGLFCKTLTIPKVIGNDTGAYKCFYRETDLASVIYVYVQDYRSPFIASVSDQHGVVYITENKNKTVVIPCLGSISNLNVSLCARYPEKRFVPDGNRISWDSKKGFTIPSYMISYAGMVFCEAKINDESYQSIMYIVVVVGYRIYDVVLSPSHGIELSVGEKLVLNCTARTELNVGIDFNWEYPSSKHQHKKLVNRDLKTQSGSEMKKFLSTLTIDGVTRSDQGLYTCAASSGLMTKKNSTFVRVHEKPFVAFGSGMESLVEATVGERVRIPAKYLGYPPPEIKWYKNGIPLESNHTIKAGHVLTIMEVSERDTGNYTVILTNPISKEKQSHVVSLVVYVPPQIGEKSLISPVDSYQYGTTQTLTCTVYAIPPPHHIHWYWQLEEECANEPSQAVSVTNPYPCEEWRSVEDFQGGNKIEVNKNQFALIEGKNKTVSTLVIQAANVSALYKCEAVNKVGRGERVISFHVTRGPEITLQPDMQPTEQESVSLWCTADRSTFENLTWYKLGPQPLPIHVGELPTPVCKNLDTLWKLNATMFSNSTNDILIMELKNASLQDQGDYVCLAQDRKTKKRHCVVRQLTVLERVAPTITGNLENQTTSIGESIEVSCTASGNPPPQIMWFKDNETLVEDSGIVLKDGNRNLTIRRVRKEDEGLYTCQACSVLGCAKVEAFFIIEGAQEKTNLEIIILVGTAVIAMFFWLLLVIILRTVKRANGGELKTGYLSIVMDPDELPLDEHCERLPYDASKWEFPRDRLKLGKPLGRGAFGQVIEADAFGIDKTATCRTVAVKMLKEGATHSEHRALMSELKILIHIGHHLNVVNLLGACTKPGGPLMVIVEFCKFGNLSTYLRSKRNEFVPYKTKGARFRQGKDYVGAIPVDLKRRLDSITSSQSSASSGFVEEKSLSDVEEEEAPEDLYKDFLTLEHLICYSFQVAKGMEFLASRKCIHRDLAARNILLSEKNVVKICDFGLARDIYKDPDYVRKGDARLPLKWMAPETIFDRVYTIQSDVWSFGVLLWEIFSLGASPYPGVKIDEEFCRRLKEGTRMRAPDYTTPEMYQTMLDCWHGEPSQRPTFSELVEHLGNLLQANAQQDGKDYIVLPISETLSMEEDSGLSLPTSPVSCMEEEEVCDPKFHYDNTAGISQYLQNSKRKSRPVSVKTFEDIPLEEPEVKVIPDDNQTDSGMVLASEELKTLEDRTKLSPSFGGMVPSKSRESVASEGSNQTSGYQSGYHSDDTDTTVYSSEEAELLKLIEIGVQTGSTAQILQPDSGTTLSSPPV

[6] = tested on: KDR (VEGFR-2)-expressing HUVEC; assay: FACS analysis of c-p1C11 on HUVEC; format: binding, human; conditions: 5 μg/ml
Procedure: Early passage HUVEC cells were grown in growth factor-depleted EBM-2 medium overnight to induce the expression of KDR (VEGFR-2). The cells were harvested and washed three times with PBS, incubated with c-p1C11 IgG (5 μg/ml) for 1 h at 4° C., followed by incubation with a FITC labeled rabbit anti-human Fc antibody (Capper, Organon Teknika Corp., West Chester, Pa.) for an additional 60 min. The cells were washed and analyzed by a flow cytometer (Model EPICS®, Coulter Corp., Edison, N.J.).

[7] = molecular target: T3, immobilized KDR (VEGFR-2) receptor (Homo sapiens, UniProt P35968); assay: Competitive VEGF binding assay, second assay (radiolabeled VEGF165 to immobilized KDR); conditions: FIG. 23
T3 construct: the cDNA for KDR (VEGFR-2) extracellular domain is fused in-frame with the cDNA for human placental AP; human placental alkaline phosphatase (AP), inferred for these assays; made in house; host or cells: NIH 3T3 (inferred: the only KDR protein whose making is described)

[8] = molecular target: T1, KDR (VEGFR-2); assay: BIAcore analysis of p1C11 scFv, c-p1C11 and VEGF; format: binding; parameters: the cDNA for KDR (VEGFR-2) extracellular domain is fused in-frame with the cDNA for human placental AP; made in house; host or cells: stably transfected NIH 3T3 cells, purified from supernatant on anti-AP antibody; conditions: BIAcore, Table 2
Procedure: The binding kinetics of antibodies to KDR (VEGFR-2) were measured using BIAcore biosensor (Pharmacia Biosensor). […] Sensorgrams were obtained at each concentration and were evaluated using a program, BIA Evaluation 2.0, to determine the rate constants kon and koff. Kd was calculated as the ratio of rate constants koff/kon.
Target sequence in this assay (P35968 20-764 limits assumed): as the sequence (P35968 20-764 limits assumed) above

[9] = tested on: p44/p42 MAP kinases; assay: MAP kinase phosphorylation assay in HUVEC (chimeric IgG); format: cell-based, human
Procedure: as §1

[10] = tested on: HUVEC; assay: Anti-mitogenic assay, [3H]-TdR, HUVEC (chimeric IgG and scFv); format: cell-based, human; conditions: FIG. 24
Procedure: The effect of anti-KDR (VEGFR-2) antibodies on VEGF-stimulated mitogenesis of human endothelial cells was determined with a [^3H]-TdR DNA incorporation assay using HUVEC. […] After 18 hours of incubation, 0.25 μCi of [^3H]-TdR was added to each well and incubated for an additional 4 hours. DNA incorporated radioactivity was determined with a scintillation counter. The data shown in FIG. 24 are representative of at least three separate experiments.

[11] = molecular target: T1, KDR (VEGFR-2); assay: Quantitative KDR binding assay (chimeric IgG and scFv); parameters: the cDNA for KDR (VEGFR-2) extracellular domain is fused in-frame with the cDNA for human placental AP; made in house; host or cells: stably transfected NIH 3T3 cells, purified from supernatant on anti-AP antibody; conditions: ELISA, FIG. 20
Procedure: Various amounts of antibodies were added to KDR (VEGFR-2)-coated 96-well Maxi-sorp microtiter plates (Nunc. Danmark) and incubated at room temperature for 1 h, after which the plates were washed 3 times with PBS containing 0.1% Tween-20. The plates were then incubated at RT for 1 h with 100 ul of mouse anti-E tag antibody-HRP conjugate (Pharmacia Biotech) for the scFv, or rabbit anti-human IgG Fc specific antibody-HRP conjugate (Cappel, Organon Teknika Corp.) for the chimeric IgG. The plates were washed 5 times, TMB peroxidase substrate (KPL, Gaithersburg, Md.) added, and the OD at 450 nm read using a microplate reader (Molecular Device, Sunnyvale, Calif.).
Target sequence in this assay (P35968 20-764 limits assumed): as above

Sequence of KDR (VEGFR-2), KDR (VEGFR-2)(1-3), KDR (VEGFR-2)(3) (P35968 224-327 limits assumed): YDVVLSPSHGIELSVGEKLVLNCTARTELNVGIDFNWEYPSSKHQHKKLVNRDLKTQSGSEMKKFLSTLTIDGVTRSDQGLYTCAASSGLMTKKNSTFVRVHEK
T2 sequence (P35968 20-764 limits assumed): as the sequence (P35968 20-764 limits assumed) above
T3 sequence (P35968 20-764 limits assumed): as above

B1: D2H2: human anti-KDR (VEGFR-2) VEGF-blocking Fab clone (antibody, V domains shown)
VH: EVQLVQSGGGLVKPGGSLRLSCAASGFTFSSYSMNWVRQAPGKGLEWVSSISSSSSYIYYADSVKGRFTISRDNAKDSLYLQMNSLRAEDTAVYYCARVTDAFDIWGQGTMVTVSS
VL: DIQLTQSPSSVSASVGDRVTITCRASQGISSRLAWYQQKPGKAPKLLIYAASSLQTGVPSRFSGSGSGTDFTLTISSLQPEDFATYYCQQANRFPPTFGPGTKVDIK
efficiency of binding to KDR [1]: more efficient binders
koff [2]: 4.87 ± 0.18 10^−4 S^−1
kon [2]: 12.4 ± 2.9 10^4 M^−1S^−1
location of binding epitope(s) [3]: broader binding epitope(s) within KDR (VEGFR-2) Ig domains 1 to 3

B2: c-p1C11: chimeric p1C11 IgG1: p1C11 variable domains with human κ and γ1 constant regions (antibody, V domains shown)
VH: QVKLQQSGAELVGSGASVKLSCTTSGFNIKDFYMHWVKQRPEQGLEWIGWIDPENGDSDYAPKFQGKATMTADSSSNTAYLQLSSLTSEDTAVYYCNAYYGDYEGYWGQGTTVTVSS
VL: DIELTQSPAIMSASPGEKVTITCSASSSVSYMHWFQQKPGTSPKLWIYSTSNLASGVPARFSGSGSGTSYSLTISRMEAEDAATYYCQQRSSYPFTFGSGTKLEIK
blocking of KDR binding to immobilized VEGF [4]: block KDR (VEGFR-2) receptor from binding to immobilized VEGF in a dose-dependent manner
inhibition of VEGF-stimulated phosphorylation (activation) of KDR receptor ([5]; VEGF165 20 ng/ml): effectively inhibits
effect of antibody alone on activity of KDR receptor and p44/p42 MAP kinases ([5]; without VEGF): Neither c-p1C11, nor C225 alone has any effects
binding to KDR expressed on early passage HUVEC [6]: binds specifically to KDR (VEGFR-2) expressed on early passage HUVEC
competition with 125I labeled VEGF for binding to immobilized KDR [7]: efficiently compete
koff [8]: 0.52 10^−4 s^−1
kon [8]: 0.63 10^5 M^−1s^−1
inhibition of FGF-stimulated activation of p44/p42 MAP kinases ([9]; FGF 10 ng/ml, not shown): does not inhibit
inhibition of VEGF-stimulated activation of p44/p42 MAP kinases ([9]; VEGF165 20 ng/ml): effectively inhibits
inhibitory effect on VEGF-stimulated mitogenesis of HUVEC [10]: effectively inhibit mitogenesis of HUVEC stimulated by VEGF
direct binding to immobilized KDR [11]: binds more efficiently to immobilized KDR (VEGFR-2) than the parent scFv
direct binding to immobilized KDR ([11]; listed as C-p1C11): bind more efficiently to immobilized KDR (VEGFR-2) receptor than the parent scFv
